Experimental data published in the supplement of paper PMC9170038.

These sequences were tested on K4 kissing-loop RNA reporter (assay: apparent KD of K4 kissing-loop reporter; higher = weaker reporter binding). Details: Eterna round: R107; input ligand: FMN 200 uM.
Method: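 RNA-MaP round R107: designed RNA switches with theophylline, tryptophan, arginine or FMN aptamers are transcribed on-chip within common flanks. They are titrated with a labelled K4 kissing-loop RNA reporter in RNA-MaP buffer (100 mM Tris pH 7.5, 80 mM KCl, 4 mM MgCl2), without ligand or with the indicated ligand. Median apparent KD per design.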
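Also: bound reporter read as fluorescence of individual clusters on recovered sequencing chips by microscopy, with normalized cluster intensities fitted with a binding model.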

Sequence	apparent KD of K4 kissing-loop reporter
AGUGCACUGUCAGGAUAUAUACAGUGAUGUUGUGUAUGUCAGCAAGUCAAAGACUUGCUAUUUUGUGUAGAAGGGACUGUGUACA [whbob_Ex_FMNB__2th221]	385 nM
GCCGUAGAUUGAAGGAGCGGCAUUAACGAUGUUCUGGUAGUGAUGUUACCUCAGCAGACAUGCCAGGUAGGUCGCAAUCUACGGC	72.5 nM
AGUCCACUCUAAAGAGUGGACCUAAGGGAUACCAGUGAUGUUGGUCACCCUUGGCAGCCCUCUGUCAUCGAUAAAGAUGGCAGGA	128 nM
AGGCGGCAAGAUUGAUUGGAAAGUAAUCGACGAGGACCGGUACGGCCGCCACUCGAACACCAGUGAUGUUGGUCUGGCUUAAGCC [Exclusion Tryptophan A GF 20]	430 nM
ACGCUGUGAAUAACACAGCGAAUAAAUUCGCGAGGACCGGUACGGCCGCCACUCGCUAACUGCGAGUGAUGUUCGAUAAUAAAAU [Mat - Mod of OpenEnded 3 - D13]	176 nM
UGUCAUUGGUCGGCCGCCACUUCAUAAAGAGUGAUGUUCUAAAAGACGGAUCGAAAGAUCUGUCGAAGGACCGGGACCGAUGACU [TrypBS 18 #SwitchBubble #StaticStem]	1410 nM
UGUCAUGGAAACAUGAACGUUAAAAUAAAUCGAGGACCGGUACGGCCGCCACUCGUAUAGCGGUCAGUGAUGUUGACUGUAAUAA [KL-SSTryp-A form2 sub10]	101 nM
AAUUUAGUGACGGCCGCCACUAUGGUGAUUUAUUUGUUUGAGUGAUGUUUUGAUGUUUGAUUUUGUAGGACCGGGUUAGGUGAUG [aaacmullin]	355 nM
UGUACCGAGGCAGGAUAUGUCGUCGAAAGACGAAAUGGAGUGAUGUUCCUUAAACUGCGAAAGCAGACAGAAGGGUCUUGGUACU [FmnBS 29 G10+U76]	132 nM
UGUAUGUGAUUUGAUACCAGACAAGCAGGUGUGACAAGAGUGAUGUUCUUGAUGGUUUGGGUCCCUUGGCAGCAAAUCGCAUACU [KL-SSTheoB16]	194 nM
CGAAAUAGAACGGCCGCCACUGUAAGUCCUGACAGUAAGUGAUGUUUGAAAGAUUCGGGUAUUCGCAGGACCGGGUUCGUCAUAA [theeternabot_sameState_KL_Trp_B_13]	886 nM
AUGUUGAGCGGAAGGAGCGGCUGAGCCAGUGAUGUUGGUUAAUCCAAGUGAUGUUGGAAAAGCCAGGUAGGUCGCCGUUUUACGU [whbob_SS_Arginine_B_2t145]	1010 nM
CGCAGUGAUGUUGCUAUUAUUCUUGAUUAACGAGGACCGGUACGGCCGCCACUCGAUUUCUAUCUGAUCCAGUGUUUUGUUGAGU [#22 K4 Tryptophan A Exclusion]	296 nM
CCGCCGGUCGGAAGGAGCGCACGCCAGAGUGAUGUUCUGGCGCGGGCAUUUUGUGCCCGCGUGCAGGUAGGUCGCCGAUUCUGGC [Quxeorti]	602 nM
GUAUCAGUGAUGUUGAUAGGCGAGCGGGAUACCAGCCAAGACUCAGGCCCUUGGCAGCCCACAUAUCCCACGUAGAUAGUAGCUC [Same State - Theophylline A (Freestyle 16)]	137 nM
UACCCGUGCUACUCCAUCCAUGCCACACCGCGAGGACCGGUACGGCCGCCACUCGUCGGAAAGUGAUGUUUUCAAACAAAGUUGC	151 nM
AAGAAGGUCAAAGACCUUCGUGCUCGUGAUACCAGUCGCGAAAGCGGCCCUUGGCAGCACGGCAGUGAUGUUGCCAAGAGCACAA [#13 K4 Theophylline A Same State]	318 nM
AUAGACUUGCAGUGAUGUUGCAAGUGAGACUAGGAUAUCAGGAAGCUGAGAAGGAGUCAUCUCCUUCAGACAUCACUAUGAAGGA [whbob_SS_FMNA__2th180]	270 nM
CUGUCCUACGAAGGAUAUGCUGAUGGGAUCAAACAGUGAUGUUGUUAUGAACUUAGGCUUAUGUGCGCAGAAGGUCGUGGCGACG [theeternabot_sameState_KL_FMN_B_42]	236 nM
UCGGCAAAGUCGGCCGCCACUCCGGGCCCUAUAAAUGGGCGCAGUGAUGUUGCGGCUAGGCCUCUGAGGACCGGGACUUUGUAGA [Gebive]	114 nM
UUUAUAUAGUCGGCCGCCACUGAUUUUUUUAUAUGUUUAUGUUUAUACGAGUGAUGUUCGAUAUACAGGACCGGGACUUUUGUUA [JR_SSTryptoB_Sub018]	186 nM
CGGAUGUAGUGAUGUUAUAUUAGAUGUAGACGAGGACCGGUACGGCCGCCACUCGAAACGGCUGCUAGCGCGUUGCGAGGUGUGC [ExTryptoA.Ck]	341 nM

Sequence	apparent KD of K4 kissing-loop reporter
AGUAAUCUCACGGCCGCCACUGUUUAUUGUUUUUAUAGUUAUAAAUCUUGCCAGUGAUGUUGGUACAGGACCGGGUGAGUUAAUA [#25 K4 Tryptophan B Same State]	357 nM
UGACUGGACUGAAGGAGCGCGCGAGACAAAGUCUCGAACUCGUAGUGAUGUUAGGAAAUAACGCAGGUAGGUCGCAGUCUAGUCU	651 nM
AAAUUCUUUUUUUUAUUUAACUUUUCAGAAGGAGCGUGGUAGUUCACAGGUAGGUCGCUGAAUUUUGGACUAGUGAUGUUAGUUA [JR_SSArginiA_Sub006]	148 nM
GGAGGAGAAUAUGAUACCAGCAGAGAGAGAGAGGAAGUAUAGUGAUGUUAUAUGAGAGAAUGCCCUUGGCAGCAUAAGAAGAAGG [SSTheophylB.A]	150 nM
UAGUCCUAGUGAUGGUUAUCACGUGGUGGGCGAGGACCGGUACGGCCGCCACUCGACUUUGCAGUGAUGUUGCAAACCGGACAAU [Exclusion - Tryptophan A (Freestyle 18)]	228 nM
GUGCAGUGAUGUUGCACGAGGAAAGACGAUACCAGCCGUAAAUAAGGCCCUUGGCAGCGUAGGCUAGCAUAAGGUAUGCUAGUCC [Atesermace]	117 nM
GUAGGAUGAGGAGGAGGAUGAAUUACUGAAGGAGCGCAUAGAAAUGCAGGUAGGUCGCGGUAAAGAAGUAUAGUGAUGUUAUAUA [SSArgA.F]	421 nM
CCCAAAAUAUGCAGUGAUGUUGCAACCGAUACCAGUAUCGAAAGAUACCCUUGGCAGCGGAAAACCGCUACGUAAUUUAAAAGGG [Ex Theophylline A K4 17]	308 nM
AAUAAAAUCACGGCCGCCACUGGUACUAGUAUUAGCAGUGAUGUUGCUAUGUAUAAUUUAUUAAAUAGGACCGGGUGAAUAUUUA [#27 K4 Tryptophan B Exclusion]	326 nM
GGUAGCAUGGCGGCCGCCACUAAUACUUCGUAGCCUGUAGCCGGCUUCGUAGAGUGAUGUUCUAUUAGGACCGGGCCAUGCUACC	361 nM
UGAGUUUGAGUGAUGUUCAGGCAUUGGUACGAGGAUAUCGAGGAGUUGAGAAGGCGUACUGCUCAACUUUGUAUGAAUACAUACA [FMN A Ex t2b]	259 nM
AUUUUUUUGUCAGGAUAUUAGUGUUGGUUUGGUUUGUUAGUGAUGUUGAUAUUUGUUUUAUGUAUUUAAGAAGGGAUUUAGCGGU [wxooemullin]	420 nM
UGAUACCAGACUGAUACCAGCCAGUGAUGUUGGCUAAUCCGAGAAGGAGUCAAAGACUCCGGCCCUUGGCAGCAGUCUGGUAUCU [TheoBX 4 #SwitchBubble #StaticStem]	133 nM
GAACGGAGUGAUGUUCCGUUGACGAUCCUACGAGGACCGGUACGGCCGCCACUCGUAUUGCAGUGAUGUUGCAACCAGCCGUACU [Exclusion Tryptophan A GF 10]	104 nM
UGUCAUUGGUCGGCCGCCACUAGGACCGGGAUUUUUCUAGUGAUGUUAGUUUGGUCGGCCGCCACUAGGACCGGGACCGAUGACU [KL-SSTryp-B13 #DoubleAptamer]	638 nM
CCACCAAGCACGGCCGCCACUAAAUCUGCAAGUAACCUAAAGUGAUGUUUUAUCUUGCGUCAGACUAGGACCGGGUGUCAAGUUA [theeternabot_sameState_KL_Trp_B_45]	420 nM
UUAGGAGUGGGAGGAUAUCCUGGUGUGGGUGAUGUUAGUGAUGUUGAAAGUGUAGUGAUGUUGUGCGGAGAAGGUCCAGUGUUGA [BDazzled - #10 - Exc. FMN B]	504 nM
AAUACAGUGUCGGCCGCCACUGUAACAUGCCAUGAGACAUGAGACAUGAGUGAUGUUCAUGUAGACAGGACCGGGACUCAUGUAU [KL-SSTryp-B3 #analogue]	450 nM
GAAAGAAAGUAUGAUACCAGACACCCGAGUGAUGUUCGGAGCAGUGUGAUGUUCUUUUAAGUCCCUUGGCAGCAUAAAAGAAAAG [whbob_SS_Theo_B_sa84]	122 nM
UAUUUAAUUUUUAAUUUUUAAAUUGCUGAUACCAGAGCCAAUUGGCUCCCUUGGCAGCGGAUCGAGUGAUGUUCGUAUAAUUUAA [AK1 SS Theophylline A]	30.5 nM
CUGGGUUGACGAAAAGUCAACAAAAGAGAAGGAGCGCACGAAAGUGCAGGUAGGUCGCUCAAUCCAGUGAUGUUGGGUCGUCCAG [#OpenEnded 11 #K4Late]	279 nM

Same assay, conditions: Eterna round: R107; input ligand: arginine 13.2 mM

Sequence	apparent KD of K4 kissing-loop reporter
AGUGCACUGUCAGGAUAUAUACAGUGAUGUUGUGUAUGUCAGCAAGUCAAAGACUUGCUAUUUUGUGUAGAAGGGACUGUGUACA [whbob_Ex_FMNB__2th221]	156 nM
GCCGUAGAUUGAAGGAGCGGCAUUAACGAUGUUCUGGUAGUGAUGUUACCUCAGCAGACAUGCCAGGUAGGUCGCAAUCUACGGC	74.6 nM
AGUCCACUCUAAAGAGUGGACCUAAGGGAUACCAGUGAUGUUGGUCACCCUUGGCAGCCCUCUGUCAUCGAUAAAGAUGGCAGGA	114 nM
AGGCGGCAAGAUUGAUUGGAAAGUAAUCGACGAGGACCGGUACGGCCGCCACUCGAACACCAGUGAUGUUGGUCUGGCUUAAGCC [Exclusion Tryptophan A GF 20]	369 nM
ACGCUGUGAAUAACACAGCGAAUAAAUUCGCGAGGACCGGUACGGCCGCCACUCGCUAACUGCGAGUGAUGUUCGAUAAUAAAAU [Mat - Mod of OpenEnded 3 - D13]	80.8 nM
UGUCAUUGGUCGGCCGCCACUUCAUAAAGAGUGAUGUUCUAAAAGACGGAUCGAAAGAUCUGUCGAAGGACCGGGACCGAUGACU [TrypBS 18 #SwitchBubble #StaticStem]	641 nM
UGUCAUGGAAACAUGAACGUUAAAAUAAAUCGAGGACCGGUACGGCCGCCACUCGUAUAGCGGUCAGUGAUGUUGACUGUAAUAA [KL-SSTryp-A form2 sub10]	121 nM
AAUUUAGUGACGGCCGCCACUAUGGUGAUUUAUUUGUUUGAGUGAUGUUUUGAUGUUUGAUUUUGUAGGACCGGGUUAGGUGAUG [aaacmullin]	293 nM
UGUACCGAGGCAGGAUAUGUCGUCGAAAGACGAAAUGGAGUGAUGUUCCUUAAACUGCGAAAGCAGACAGAAGGGUCUUGGUACU [FmnBS 29 G10+U76]	178 nM
UGUAUGUGAUUUGAUACCAGACAAGCAGGUGUGACAAGAGUGAUGUUCUUGAUGGUUUGGGUCCCUUGGCAGCAAAUCGCAUACU [KL-SSTheoB16]	145 nM
